The target of the assay is globupain zymogen (wild-type, signal-free, C-terminal 6xHis) (unclassified Archaeoglobus species (metagenome, Soria Moria hydrothermal vent field)). Nature of the assay: SEC + AUC.

In general, stoichiometry N refers to a count of units in the complex or per binding partner. On to “globupain zymogen (wild-type, signal-free, C-terminal 6xHis) (enzyme)”, for which the stoichiometry N was found to be 2.

The record behind these values is article PMC10104074.
